Reference: patent US20240279618A1, “RECEPTOR TYROSINE KINASE AGONIST, COMPOSITION FOR CELL CULTURE MEDIUM, AND […] MAINTENANCE COMPOSITION” (SEKISUI CHEMICAL CO., LTD., priority 2021, published 2024)

T1: FGFR4-Fc (Homo sapiens, UniProt P22455)
T1 construct: Fc
T1 sequence (P22455 22-369 limits assumed): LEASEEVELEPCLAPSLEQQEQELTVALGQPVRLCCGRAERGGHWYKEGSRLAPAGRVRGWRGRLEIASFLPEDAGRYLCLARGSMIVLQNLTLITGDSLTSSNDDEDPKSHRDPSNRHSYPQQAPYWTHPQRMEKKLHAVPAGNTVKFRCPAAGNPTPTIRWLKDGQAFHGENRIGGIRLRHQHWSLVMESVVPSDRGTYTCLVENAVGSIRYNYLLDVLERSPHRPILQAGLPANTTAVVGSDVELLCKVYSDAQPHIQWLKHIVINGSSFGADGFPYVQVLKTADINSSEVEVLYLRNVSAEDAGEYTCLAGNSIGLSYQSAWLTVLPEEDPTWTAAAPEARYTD

T2: FGFR1-DII (Homo sapiens, UniProt P11362)
T2 construct: The FGFR1 extracellular domain has DII and DIII domains; made in house; host or cells: AAVpro293T cells
T2 sequence (P11362 158-246 limits assumed): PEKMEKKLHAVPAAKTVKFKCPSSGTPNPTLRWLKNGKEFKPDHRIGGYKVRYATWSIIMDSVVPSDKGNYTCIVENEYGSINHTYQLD

B1: #1-L4-#1: dimer of VHH #1 with linker L4 (GSEGKSSGSGSESKST), SEQ ID NO: 23 (protein)
VHH: QLQLVESGGGSVQAGGSLRLSCAASRSLSRFNVWTWYRQAPVKQRELVASITKSGDTNYAESVKGRFIISRDDDKNTVYLQMNNLKSEDTGIYYCAGSYYSGSYLYPSPGGFSVWGQGTQVTVSSGSEGKSSGSGSESKSTQLQLVESGGGSVQAGGSLRLSCAASRSLSRFNVWTWYRQAPVKQRELVASITKSGDTNYAESVKGRFIISRDDDKNTVYLQMNNLKSEDTGIYYCAGSYYSGSYLYPSPGGFSVWGQGTQVTVSS
modifications: #1-L4-#1
B2: VHH Clone #1: alpaca-derived VHH single-domain antibody (monomer) binding FGFR1, amino acid sequence SEQ ID NO: 17 (protein)
VHH: QLQLVESGGGSVQAGGSLRLSCAASRSLSRFNVWTWYRQAPVKQRELVASITKSGDTNYAESVKGRFIISRDDDKNTVYLQMNNLKSEDTGIYYCAGSYYSGSYLYPSPGGFSVWGQGTQVTVSS
modifications: VHH_Clone_#1

How the values were obtained:
[1] = system: human bone marrow-derived MSC; assay: MSC culture: evaluation of MSC markers by flow cytometry; assay type: cell-based; conditions: MSC fourth passage, 10% or 20% FBS; for CD90-expressing (positive) cells: over the concentrations tested
Protocol: On Day 5 after the initial seeding, D-PBS was added to the cells and removed by suction. 500 μL of TrypLE Express was added to each well and the mixture was left to stand in a CO2 incubator for 5 to 10 minutes. The cells were observed under a microscope, and in a case where it was possible to confirm that the cells had changed in morphology, a medium was added thereto, and the cells were recovered in a PP tube by pipetting, and centrifuged (300× g, 5 minutes). After the centrifugation, the supernatant was removed by suction, an appropriate amount of 1% BSA/PBS was added to the pellet, and the mixture was pipetted to form a suspension.
A part of the suspension was collected and the number of cells was evaluated with a cell counter. Dilution was performed with 1% of BSA/PBS, so that the concentration was 0.6 to 1.0× 10^6 cells/mL. 50 μL of the mixture was dispensed into a 2 mL tube, so that the concentration was 3 to 5×10^4 cells/tube.
Equal amounts of the suspension subjected to the cell counter and the antibody solution adjusted above were mixed, and the mixture was left to stand on ice for 30 minutes or longer with light shielded. 1% of BSA/PBS was added thereto, the mixture was centrifuged (400 to 600×g, 5 minutes), and then the supernatant was removed by suction. Then, 300 to 500 μL of 1% BSA/PBS was added thereto, and the pipetted sample was subjected to flow cytometric analysis using an Attune NxT Flow Cytometer (Thermo Fisher Scientific, Inc.).

FGFR4-Fc = biological target: T1, FGFR4-Fc; assay: SPR affinity of VHH (monomer) for FGFR4-Fc; assay type: binding; conditions: same manner as Example 5
Protocol: The binding activity of VHH Clone #1 or VHH Clone #2 immobilized on Series S Sensor Chip CAP (manufactured by Cytiva) with respect to FGFR1-Fc was measured using Biacore (registered trademark) T200 (manufactured by Cytiva). Measurement was performed by CAP Single-cycle Kinetics. The temperature was set to 25° C. As a running buffer, 10 mM HEPES (pH 7.4) (Cytiva) including HBS-EP+(150 mM NaCl, 0.5 mM EDTA, and 0.05% surfactant P20) was used. The measurement order for each run is as follows.
2) Measurement of binding activity: The flow rate was set to 30 μL/mL, and VHH Clone #1 or VHH Clone #2 each diluted to 1.85 nM, 5.56 nM, 16.67 nM, or 50 nM, using a running buffer, was allowed to have an association time set to 120 seconds for binding and a dissociation time set to 600 seconds for interaction.
3) Regeneration of sensor chip surface: The flow rate was set to 10 μL/mL, a solution in which Reaneration stock 1 and Regeneration stock 2 (manufactured by Cytiva) were mixed at the ratio of 3:1 was added thereto for 120 seconds to extract the immobilized VHH. Next, analysis was performed with a 1:1 binding model using Biacore T200 Evaluation (software version 2.0, manufactured by Cytiva), and the binding activity was calculated.
The binding activity of VHH Clone #1 to FGFR2-Fc, FGFR3-Fc, or FGFR4-Fc was measured in the same manner as in Example 5.

FGFR1-DII = biological target: T2, FGFR1-DII; assay: Binding activity by biolayer interference (BLI) to FGFR1-DII; conditions: Octet, VHH immobilized
Protocol: (§1) The FGFR1 extracellular domain has DII and DIII domains. Each of an FGFR1 extracellular domains (hereinafter may be abbreviated as “FGFR1-DIIDIII”, “FGFR1-DII”, or “FGFR1-DIII”) was expressed using AAVpro293T cells as follows, these domains were purified, and an affinity measurement test with VHH Clone #1 was performed by a biolayer interference (BLI) method.
(§2) The binding activities of FGFR1-DIIDIII, FGFR1-DII, and FGFR1-DIII to VHH Clone #1 were measured by a biolayer interference method (hereinafter sometimes abbreviated as “BLI”). In BLI, using Octet 384 (manufactured by Fortebio), VHH Clone #1 diluted with a kinetics buffer (0.05% Tween20-containing PBS, pH 7.4) was immobilized on an Anti-Penta-HIS (HIS1K, manufactured by Fortebio) sensor chip, and bound to FGFR1-DIIDIII, FGFR1-DII, and FGFR1-DIII, which had been adjusted from 100 nM in 2-fold serial dilutions, and the dissociation rate was measured.
(§3) In the preparation for measurement, a tip of the sensor chip was immersed in 200 μL of the kinetics buffer for 10 minutes in order to hydrate the sensor chip. […]
(§4) After completion of the measurements, the measured value of a Reference (only the kinetics buffer) was subtracted from the actual measurement value, and Global Fitting was performed using a 1:1 binding model using Octet software to calculate the binding activity (FIG. 22).

FGFR1-DIIDIII = assay: Binding activity by biolayer interference (BLI) to FGFR1-DIIDIII; parameters: species or system human; conditions: 1:1 binding model
Sequence of FGFR1-DIIDIII (P11362 158-357 limits assumed): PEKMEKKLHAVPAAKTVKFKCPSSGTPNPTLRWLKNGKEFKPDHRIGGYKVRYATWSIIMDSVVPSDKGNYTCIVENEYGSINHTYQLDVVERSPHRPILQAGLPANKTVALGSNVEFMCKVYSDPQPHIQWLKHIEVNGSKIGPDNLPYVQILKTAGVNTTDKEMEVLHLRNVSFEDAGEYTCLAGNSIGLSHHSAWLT
Protocol: as §1, §2, §3, §4

Row | Molecule | CD90-expressing cells ([1]; "at ng/mL" (figure not given)) | CD90-expressing (positive) cells [1] | ka (FGFR4-Fc) | kd (FGFR4-Fc) | KD (M) (FGFR1-DII) | Koff (FGFR1-DIIDIII) | Kon (FGFR1-DIIDIII)
1 | FGF2: fibroblast growth factor (basic), human, recombinant (154aa), positive control; SEQ ID NO: 58 [reference compound] | less than 95% | decreased in inverse proportion to the concentration | – | – | – | – | –
2 | B1 | – | ≥ 97% | – | – | – | – | –
3 | B2 | – | – | 2.37e+06 M⁻¹ s⁻¹ | 0.0527 s⁻¹ | No Binding | 0.000141 s⁻¹ | 289000 M/s
